{"source": "patent US20020076795A1", "about": "“Novel TRF1 binding protein, methods of use thereof” (published 2002)", "binders": {"B1": {"name": "[TTAGGG]12 duplex, 142 bp HindIII-Asp718 fragment of pTH12 (dsDNA)", "DNA 1": "TTAGGGTTAGGGTTAGGGTTAGGGTTAGGGTTAGGGTTAGGGTTAGGGTTAGGGTTAGGGTTAGGGTTAGGG", "DNA 2": "CCCTAACCCTAACCCTAACCCTAACCCTAACCCTAACCCTAACCCTAACCCTAACCCTAACCCTAACCCTAA"}, "B2": {"name": "GAL4 activation domain (GAD) (alone) (other, UniProt P04386 768-881, looked up)", "chain": "ANFNQSGNIADSSLSFTFTNSSNGPNLITTQTNSQALSQPIASSNVHDNFMNNEITASKIDDGNNSKPLSPGWTDQTAYNAFGITTGMFNTTTMDDVYNYLFDDEDTPPNPKKE", "notes": "Control"}}, "key": {"TRF1 (hTRF1)": {"target": "TRF1 (hTRF1) (Homo sapiens, UniProt P54274 P54274:2-439)", "experiment": "EMSA; 13-120 ng TRF1 per 20 ul, 1 ng probe, 20 mM Hepes-KOH pH 7.9, 100 mM KCl, 100 ng sheared E. coli DNA, room temperature; slight nonspecific stimulation by tankyrase without NAD+", "conditions": "tags: baculovirus-derived (Bianchi et al. 1997); chain copies: 2 (homodimer, stated; several dimers per probe at high concentration); label: end-labeled", "method": "Biol. 12:4834 (1992)] containing 12 tandem TTAGGG repeats. Baculovirus-derived TRF1 (13 to 120 ng) [Bianchi et al. EMBO J. 16:1785 (1997)] was incubated for 30 minutes at room temperature in a 20 μl reaction containing 20 mM Hepes-KOH (pH 7.9), 100 mM KCL, 0.5 mM DTT, 5% glycerol, 0.1% NP40, 100 ng sheared E. coli DNA, 100 ng β-casein, and 1 ng of labeled probe. In some cases, reactions were supplemented with NAD⁺ (0.2 mM) and baculovirus-derived human tankyrase (2.5 to 200 ng). Samples were fractionated on a 0.7% agarose gel run in 0.1× TBE (8.9 mM Tris-base, 8.9 mM Boric acid, and 0.2 mM EDTA) at 130 volts for 1 hour at room temperature. Gels were dried onto Whatman DE81 paper and autoradiographed."}, "[1]": {"target": "T1, human full length TRF1 fused to LexA (LexA-TRF1) (human, UniProt P0A7C2 1-202; P54274 2-439)", "T1 construct": "The construct comes from Bianchi et al. 1997; also called LexA-FL", "T1 sequence (looked up)": "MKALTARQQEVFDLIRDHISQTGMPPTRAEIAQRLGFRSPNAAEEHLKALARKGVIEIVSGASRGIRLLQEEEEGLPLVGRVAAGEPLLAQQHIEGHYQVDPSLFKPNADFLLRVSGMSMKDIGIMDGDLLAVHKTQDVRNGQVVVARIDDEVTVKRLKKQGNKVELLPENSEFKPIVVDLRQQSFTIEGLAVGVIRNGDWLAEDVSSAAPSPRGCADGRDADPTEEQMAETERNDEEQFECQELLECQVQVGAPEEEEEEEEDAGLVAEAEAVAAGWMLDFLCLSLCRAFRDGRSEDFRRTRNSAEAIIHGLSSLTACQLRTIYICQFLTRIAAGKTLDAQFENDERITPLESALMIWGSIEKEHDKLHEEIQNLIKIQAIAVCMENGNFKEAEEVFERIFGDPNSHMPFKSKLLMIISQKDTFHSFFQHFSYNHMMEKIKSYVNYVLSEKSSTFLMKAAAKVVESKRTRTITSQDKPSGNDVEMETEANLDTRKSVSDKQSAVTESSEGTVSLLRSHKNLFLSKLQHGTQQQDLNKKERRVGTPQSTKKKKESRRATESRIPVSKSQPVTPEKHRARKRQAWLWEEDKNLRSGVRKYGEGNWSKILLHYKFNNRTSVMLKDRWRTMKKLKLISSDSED", "experiment": "yeast two-hybrid, β-galactosidase; GAD without tankyrase sequences", "method": "TR1L-4 and TR1L-12 were isolated from a human liver two-hybrid cDNA library (Clontech) created in pGad10. The library was screened with human full length TRF1 cDNA fused to LexA (LexA-TRF1) [Bianchi et al., EMBO J., 16:1785-1794 (1997)] in the yeast strain L40 as described [Hollenberg et al., Mol. Cell Biol., 15:3813-3822 (1995)]. Two-hybrid analysis was performed as described by Bianchi et al. [EMBO J., 16:1785-1794 (1997)]. β-galactosidase assays for the two-hybrid analysis was performed as described by Bianchi et al. [EMBO J., 16:1785-1794 (1997)].\nTwo-hybrid analysis was used to determine the interacting domains between tankyrase and TRF1. […] To determine the tankyrase-interacting domain in TRF1, two-hybrid analysis was performed with the 10-ANK repeat domain of TR1L-12 fused to the GAL4 activation domain (GAD-tankyrase) and full-length and deletion constructs of TRF1 fused to LexA. […] As observed previously, the amino-terminal acidic domain of TFR1 (LexAd68-C) activated transcription even in the absence of tankyrase sequences in the GAD fusion partner. […] Deletion of the acidic domain of TRF1 (ΔN66-LexA) abolished the interaction with GAD-tankyrase."}}}
{"binder": "B1", "values": [{"measurement": "binding result", "setting": "TRF1 (hTRF1)", "result": "binds"}]}
{"binder": "B2", "values": [{"measurement": "binding result", "setting": "[1]", "result": "no binding"}]}
